The record followed here is the nanobody polyreactivity screen of Harvey et al. (2022).

This data set is described as follows: yeast display, Sf9 membrane polyspecificity reagent, FACS + sequencing; frameworks hold sequencing errors. The gist of the method:
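Sorting gates, low and high (top ~1%), were placed on anti-HA fluorescence to track expression and on streptavidin fluorescence to track reagent binding. A clone's polyreactivity label is taken from the gate it came out of. The reagent was 10% biotinylated, detergent-solubilized Sf9 membrane, applied for 1 hour at 4 °C to galactose-induced yeast display cells.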
For “QVQLVESGGGLVQAGGSLRLSCVASGRIIPGNAMGGYRQAPGKESELVAAISYGGGSTYYADSVKGRFTISRDNAKNTVYLQMNSLKPADTAVYYCAAASSGEYGYWGQGTQVTVSS”, the “polyreactivity (PSR sort gate)” value is on record as “low polyreactivity”.

With “QVQLVESGGGLVQAGGSLRLSCVASGRTFSRYAMGWYRQAPGKERELVAAISRRGGSTYYADSVKGRFTISRDNAKNTVYLQMNSLKPEDTAVYYCAAGYITWGSGNWVVTPYDYWGLGTQVTVSS”, the “polyreactivity (PSR sort gate)” value is given as “high polyreactivity”. For “QVQLVESGGGLVQAGGSLRLSCVASGSIFGSYAMGWYRQAPGKERELVASISDSGGSTDYADSVKGRFTISRDNAKNTVYLQMHSLKPEDTAVYYCAADDFSGYVTEYDYWGQGTQVTVSS” the value was “low polyreactivity”; for “QVQLVESGGGLVQAGGSLRLSFAASEGWYRQAPGKERELVAAISYIGGSTYYADSEKGRFTISRDNAKNTVYLQMNRLKPEDTAVYYCAKGYPDPKWGGVLAYDYWGQGTQVTVSS”, “low polyreactivity”. For “QVQLVESGGGLVQAGGSLRLSFAASGFTFRNYAMGWYRQAPGKERELVAAISTSGGRTYYADSVKGRFTISRDNAKNTVYLEMNSLKPEDTAVYYCNAGSGSYSYRYNYWGQGTQVTVSS” the value was “high polyreactivity”; for “QVQLVESGGGLVQAGGSLRLSFAASGGTFRPYAMGWYRQAPGKETELVATIRSSGGRTYYADSVKGRFTISRDNAKNTVYLQMNSLKPEDTAVYYCAKRAQTYYGYDYWVQGTQVTVSS”, “high polyreactivity”; for “QVQLVESGGGLVQAGGSLRLSFAASGGTLDVYAMGWYRQAPGKEREFVAAISWSGGRTYYADSVKGRFTISRDNAKNTVYLQMISLKPEDTAVFFCATDLYISIRYGGYYWGQGTQVTVSS”, “high polyreactivity”. With “QVQLVESGGGLVQAGGSLRLSFAASGRIFAYYVMGWYRQAPGKARELVAAITGSGGSTYYADSVKGRFTISRDNAKNTVYLQMNSLKPEDTAVYYCNADFVWRGDYWGQGTQVTVSS” the entry was “low polyreactivity”. On to “QVQLVESGGGLVQAGGSLRLSFAASGRIFKRNTKRWYRQAPGKETELVAAITYSGITYYADSVKGRFTISRDNAKNTFYLQMNSLKPEDTAVYYCDKVLYPIGSPRFEYWGQGTQVTVSS”, for which the “polyreactivity (PSR sort gate)” value is given as “low polyreactivity”. For the sequence “QVQLVESGGGLVQAGGSLRLSFAASGRIFPHNAMGWYRQAPGKERELVAAISSNGGSTYYADSVKGRFTISRDNAKNTVYLQMNSLKPEDTAVYYCAKYRYFAGDGDYWGQGTQVTVSS”, the “polyreactivity (PSR sort gate)” value was “low polyreactivity”. For “QVQLVESGGGLVQAGGSLRLSFAASGRTFDRNAMGWYRQAPGKERELVARITIDGSTNYADSVKGRFTISRDNAKNTVYLQMNSLKPEDTAVYYCATDQLSLSWYFRPYDYGYWGQGTQVTVSS” the value was “high polyreactivity”; for “QVQLVESGGGLVQAGGSLRLSFAASGRTFGTNGMGWYRQAPGKEREFVAAITWNGGGTYYADSVKGRFTISRDNAKNTVYLQMNSLKPEDTSVYYSAKRTRWNYKGYGTGGYYWGQGTQVTVSS”, “high polyreactivity”. Turning to “QVQLVESGGGLVQAGGSLRLSFAASGRTFVINAMGWYRQAPGKERELVAAITWRGGSTYYADSVKGRFTISRDNAKNTVYLQMNSLKPEDTAVYYCAARWFPWLQLKRYDYWGQGTQVTVSS”, the “polyreactivity (PSR sort gate)” value was “low polyreactivity”. With “QVQLVESGGGLVQAGGSLRLSFAASGRTFYYYASRWYRQAPGKERELVARIRSGGSTNYADSVKGRFTISRDNAKNTFYLQMNSLKPEDTAVYYCNALGAKGYVKGFDYRGQGTQVTVSS” the entry was “low polyreactivity”; with “QVQLVESGGGLVQAGGSLRLSFAASGSIFDDNAMGWYRQAPGKERELVAAITSTDSTNYADSVKGRFTISRDNAKNTVYLQMNSLKPEDTAVYYCARDIKHATSYEALYYSDYDYWGQGTQVTVSS”, “low polyreactivity”. For “QVQLVESGGGLVQAGGSLRLSFAASGSIFIRNAMGWYRQAPGKERELVAAISIGDGSTYADSVKGRFTISRDNAKNSVYLQMNSLKPEDTAVYYCNAAGIVWRYYSYGYWGQGTQVTVSS” the value was “low polyreactivity”; for “QVQLVESGGGLVQAGGSLRLSFAASGSTFKRYLMGWYRQAPGKERELVAAISSRGGSTYYADSVKGRFTISRDYANNTVYLQMISLKPEYTAVFYCATANVRAEDYWGQGTQVTVSS”, “high polyreactivity”; for “QVQLVESGGGLVQAGGSLRLSFAATGSILLRYAMGWYRQAPGKERELVAAISYDGGGTFYADSVKGRFTISRDNAKNTVYLQMHSLKPEDTAVYYCAARVIFRVKGLEYWGQGTQVTVSS”, “low polyreactivity”.

As to “QVQLVESGGGLVQAGGSLRLSFAAYGRTIRWNAMGWYRQEPGKERELVAAITSRGGSTYYADSVKGRFTISRDNAKNTVYLQMNSLKPEDTAVYYCAKQPKPPPVTGYDYWGQGTQVTVSS”, the “polyreactivity (PSR sort gate)” value was “high polyreactivity”.

For “QVQLVESGGGLVQAGGSLRLSFAPSGRTIDPNAMGWYRQAPGKERELVAAITRTGVRKYYADSVKGRFTISRDNAKNTVYLQMNSLKPEDTAVYYCAASYSGRQDRYPHYDYWGQGTQVTVSS”, the “polyreactivity (PSR sort gate)” value was “low polyreactivity”. With “QVQLVESGGGLVQAGGSLRLSGAASGGTFSNYAMGWYRPAPGKEREVVAAIRWRGGNTYYADSVKGRFTISRDNAKNTVYLQMNSLKPEDTAVYYCAAQTHDYTRSVGTTAYDYWGQGTQVTVSS” the entry was “low polyreactivity”. Consider “QVQLVESGGGLVQAGGSLRLSGAASGRIFWYNAMGWYRQAPGKEREVVAGITSGGRTNYADSVKGRFTISRDNAKNTVYLQMNSLKPEDTAVYYCAATHSLRMYYLGQGTQVTVSS”, for which the “polyreactivity (PSR sort gate)” value is given as “low polyreactivity”.

With “QVQLVESGGGLVQAGGSLRLSGAASGRTLKWYAMGWYRQPPGKERELVAAISWSGGSTYYADSVKGRFTISRDNAKNTVYVQMNSLKPEDTAVYYCAAYYIYSSVGKSLYASMEYWGQGTQVTVSS”, the “polyreactivity (PSR sort gate)” value is “low polyreactivity”. For “QVQLVESGGGLVQAGGSLRLSGAASGSTFQYYAMGWYRQAPGKERELVAAISDGTNTNYADSVKGRFTISRDNAKNTVYLQMNSLKPEDTAVYYCAARFSSIVKYVGIGTDEYDYWGQGTQVTVSS” the value was “low polyreactivity”; for “QVQLVESGGGLVQAGGSLRLSGAASGSTFRGYAMGWYRQAPGKERELFAAMTYISDSTYYADSVKGRFTISRDNAKNTVYLQMNSLKPEDTAVYYCNAYYDGDWRYTSQETGDHWGQGTQVTVSS”, “low polyreactivity”; for “QVQLVESGGGLVQAGGSLRLSLAASGSIFSYYAMGWYRQAPWKERELVAAISYSGSDTYYADSVKGRFTISRDNAKNTVYLQMNSLNPEDTAVYYCAAEDPSYSYDYWGQGTQVTVSS”, “low polyreactivity”.

With “QVQLVESGGGLVQAGGSLRLSLAASGSNFSSYAMGWYRQAPGKEREWVAAIRLIGGTTYYADSVKGRFTISRDNAKNTVYLQMNSLKPEDTAVYYCNAPSYPDYIYWSQRYDYDYWGQGTKVTVSS”, the “polyreactivity (PSR sort gate)” value is reported as “low polyreactivity”. In the case of “QVQLVESGGGLVQAGGSLRLSRAASGIMFGSYAMGWYRQAPGKERELVAAITSRGGSTYYADSVKGRFTISRDNAKNTVYLQMISLKPEDTAVYYCADVLYYWRVVYYVYADTGDYWGQCTQVTVSS”, the “polyreactivity (PSR sort gate)” value was “high polyreactivity”.

As to “QVQLVESGGGLVQAGGSLRLSRAASGRIFHLYAMGWYRQAPGKERELVAAITGRGGSTYYADSVKGRFTISRDNAKNTVYLQMNSLKPEDTAVYYCAAYEFGFLRYYSGRSYYYWGQGTQVTVSS”, the “polyreactivity (PSR sort gate)” value was “high polyreactivity”. For “QVQLVESGGGLVQAGGSLRLSRAASGRTFYGYAMGWYRQAPGKESELVARIRSGGSTNYADSVKGRFTISRDNAKNTFYLQMNSLIPEDTAVYYCAARPGAAGYKYYYWGQGTQVTVSS” the value was “high polyreactivity”; for “QVQLVESGGGLVQAGGSLRLSSAASGFICATYSMGWYRQAPGKERELVASIRKSGGSTYYADSVKGRFTISRDNAKNTVYLQMNSLKPEDTAVYYCAKVYRYYPKYNYWGQGTQVTVSS”, “high polyreactivity”.

As to “QVQLVESGGGLVQAGGSLRLSSAASGFIFEDYAMGWYREAPGKARELFAAISRRGGSTYYADSVKGRFTISRDNAQNTVYLQMNSLKPEDTADYYCAARKRYRPGERYEYWGQGTQVTVSS”, the “polyreactivity (PSR sort gate)” value was “high polyreactivity”. Consider “QVQLVESGGGLVQAGGSLRLSSAASGFIFEPYAMGWYRQAPGKERELVAAIRWSDGSTFYADSVKGRFTISRDTAKNTVYLQMNSLKPEDSAVYYCNAVYEHRRVGWVTIDYGYWGQGTQVTVSS”, for which the “polyreactivity (PSR sort gate)” value is on record as “low polyreactivity”. For “QVQLVESGGGLVQAGGSLRLSSAASGFIFPAYAMGWYRQAPGKDRELVAAISKSGGRTYYADSVKGRFTISRDNAKNTVYLQMNSLKPEDTAVYYCNKYRYPREQYTWKYAWGYDYWGQGTQVTVSS”, the “polyreactivity (PSR sort gate)” value is “high polyreactivity”. With “QVQLVESGGGLVQAGGSLRLSSAASGFIFRRYAMGWYRQAPGKERELVAAISGSGGRTYYADSVKGRFTISRDNAKNSVYLQMNSLKPEDTAVYYCAADQGSLLYDYWGQGTKVTVSS” the entry was “high polyreactivity”; with “QVQLVESGGGLVQAGGSLRLSSAASGFTFEENAMGWYRQAPGKERELVAAINWSGGNTYYADSVKGRFTISRDNAKNTVYLQMNSLKPEDTAVYYCAAVSTRYYYSVGPYYGYDYWVQGTQVTVSS”, “high polyreactivity”. With “QVQLVESGGGLVQAGGSLRLSSAASGFTFSDNAMGWYRQAPGKERELVAAISRSGGNTHYADSVKGRFTISRDNAKNTVYLQMNSLKPEDTAVYYCAKYLYKSRIRSTFDYWGQGTQVTVSS”, the “polyreactivity (PSR sort gate)” value was “high polyreactivity”.

Turning to “QVQLVESGGGLVQAGGSLRLSSAASGFVCNAMGWYRQAPGKERDLVAAIDSSGGNTYYADSVKGRFTISRDNAKNTVYLQMNSMKPEDTAVYYCAARYVERHTDYYYWGQGTQVTVSS”, the “polyreactivity (PSR sort gate)” value was “low polyreactivity”. With “QVQLVESGGGLVQAGGSLRLSSAASGGTFGFNAMGWYRQAPGKERELVSGISSRGGSTYYADSVKGRFTISRDYAKNTVYLQMNSLKPEDTAVYYCNARQYPGRSWYRYDYWGQGTQVTVSS” the entry was “high polyreactivity”; with “QVQLVESGGGLVQAGGSLRLSSAASGIICAIYAMGWYRQAPGKERELVAAITWRGGSTYYADSVKGRFTISRDNAKNSVYFQKNRLKPEDTAVYYCAAVTKSLYGYDYWGQGTQVNVSS”, “low polyreactivity”.
